{"source": "paper PMC12086086", "proteins": {"B1": {"name": "ribonucleotide reductase large subunit M1 (RRM1): RRM1-T734A (protein)", "parent chain": "MHVIKRDGRQERVMFDKITSRIQKLCYGLNMDFVDPAQITMKVIQGLYSGVTTVELDTLAAETAATLTTKHPDYAILAARIAVSNLHKETKKVFSDVMEDLYNYINPHNGKHSPMVAKSTLDIVLANKDRLNSAIIYDRDFSYNYFGFKTLERSYLLKINGKVAERPQHMLMRVSVGIHKEDIDAAIETYNLLSERWFTHASPTLFNAGTNRPQLSSCFLLSMKDDSIEGIYDTLKQCALISKSAGGIGVAVSCIRATGSYIAGTNGNSNGLVPMLRVYNNTARYVDQGGNKRPGAFAIYLEPWHLDIFEFLDLKKNTGKEEQRARDLFFALWIPDLFMKRVETNQDWSLMCPNECPGLDEVWGEEFEKLYASYEKQGRVRKVVKAQQLWYAIIESQTETGTPYMLYKDSCNRKSNQQNLGTIKCSNLCTEIVEYTSKDEVAVCNLASLALNMYVTSEHTYDFKKLAEVTKVVVRNLNKIIDINYYPVPEACLSNKRHRPIGIGVQGLADAFILMRYPFESAEAQLLNKQIFETIYYGALEASCDLAKEQGPYETYEGSPVSKGILQYDMWNVTPTDLWDWKVLKEKIAKYGIRNSLLIAPMPTASTAQILGNNESIEPYTSNIYTRRVLSGEFQIVNPHLLKDLTERGLWHEEMKNQIIACNGSIQSIPEIPDDLKQLYKTVWEISQKTVLKMAAERGAFIDQSQSLNIHIAEPNYGKLTSMHFYGWKQGLKTGMYYLRTRPAANPIQFTLNKEKLKDKEKVSKEEEEKERNTAAMVCSLENRDECLMCGS"}}, "key": {"[1]": {"assay": "LC/MS", "conditions": "glycan lost; control: parental PANC-1"}, "[2]": {"assay": "nocodazole release, PI flow cytometry", "conditions": "glycan lost; control: parental PANC-1"}, "[3]": {"assay": "Western blot and qPCR", "conditions": "glycan lost; control: parental PANC-1"}, "[4]": {"assay": "XTT viability, 3-day gemcitabine", "conditions": "glycan lost; control: parental PANC-1"}, "[5]": {"assay": "blot", "conditions": "glycan lost; control: wild-type RRM1"}, "[6]": {"assay": "LIVE/DEAD staining", "conditions": "glycan lost; control: parental PANC-1"}, "[7]": {"assay": "soft agar colony assay", "conditions": "glycan lost; control: parental PANC-1"}, "[8]": {"assay": "low-attachment sphere assay", "conditions": "glycan lost; control: parental PANC-1"}, "[9]": {"assay": "γH2AX, 53BP1, RPA immunofluorescence foci", "conditions": "glycan lost; control: parental PANC-1"}}}
{"protein": "B1", "values": [{"measurement": "other: cellular NTP pools", "setting": "[1]", "value": "decreases"}, {"measurement": "other: S-phase duration", "setting": "[2]", "value": "increases"}, {"measurement": "other: thymidine phosphorylase (TP) expression", "setting": "[3]", "value": "decreases"}, {"measurement": "other: gemcitabine sensitivity", "setting": "[4]", "value": "increases"}, {"measurement": "other: RRM1 serine/threonine phosphorylation", "setting": "[5]", "value": "decreases"}, {"measurement": "other: cell death", "setting": "[6]", "value": "no change"}, {"measurement": "other: colony formation", "setting": "[7]", "value": "decreases"}, {"measurement": "other: sphere formation", "setting": "[8]", "value": "decreases"}, {"measurement": "other: DNA damage and replication stress foci", "setting": "[9]", "value": "increases"}]}
